# Assay results reported in the DeepSol protein solubility set.
# Test: soluble on expression in E. coli; label from the status in PepcDB or PDB records
row,Sequence,soluble on expression in E. coli
1,MGSDKIHHHHHHMSDTLRRKQAADHAMRHWVHQSRGPVPIGSDAHKQMFCNMLLDTHNPYKPAVIDWPALRPDALRRLTSLPIWDIAVQTEGRASVRVATFASTVRDPLLRAALELDAAEEARHKVVLSKLVQAYGIRLAPEPAYPAPKDAEWAWMVTGFSECIDSFFAFGLFRSAQRSGYFPPELVETFEPVIQEEGRHILFFANWFGWYWRNLSWWRRPWLFARVAAVWAYLIWERIGIARGIDADGVARDANFPANTAATVGNALNPRELIELCLVENARRMAGYDTRLLRPTIVPRLARFALRFIRK,not soluble
2,MGSDKIHHHHHHMSEAMQLTLPKSGSIEAYMQSAYSIPMLTAEKEHDLATRLYNENDLQAAQELIMSHLRFVIHVAKGYSGYGLPHADLVQEGNVGLMKAVKRFNPEVGVRLVSFAVHWIKAEIHEFVLKNWRIVKVATTKAQRKLFFNLRKNKKRLGWFSTEEVNTVAENLGVTTKDVMEMESRMSSHDQAFELSKDDDDNLGSSSFSPAQYLQDKQSDLAVEVENDNWDNHANKRLSTALVTLDERSQDIIKTRWLTEDKTTLQELANKYQISAERVRQLEKNALSKLKNTMVFD,not soluble
3,MGSDKIHHHHHHMSEEQKTISISELESMNIKQLYEIAKSLGIPRYTSMRKRDLIFAILKAQTESTGYFFGEGVLEIHPEGFGFLRRIEDNLLPSNDDIYISPSQIRKFNLNTGDIISGVIRKPKEGEKYFAMIKIEAINYRPVEAVNDRVNFDNLTPDYPRERFILETDPKIYSTRLIDLFAPIGKGQRGMIVAPPKAGKTTILKEIANGIAENHPDTIRIILLIDERPEEVTDIRESTNAIVIAAPFDMPPDKQVKVAELTLEMAKRLVEFNYDVVILLDSLTRLARVYNIVVPPSGKLLTGGVDPAALYKPKRFFGAARNTREGGSLTIIATALVETGSKMDEVIFEEFKGTGNMELVLSRQLANKRIFPAINLLLSGTRREELLLDEETLKKVWLLRRMLSAMTEEEGLTLILNKLSETSSNEEFLKLIDKEKARY,not soluble
4,MGSDKIHHHHHHMSEIEAQLPVIHFADAKTFETWIAEQGSDCKGLWVKFAKKASGIASITPREALDVALCYGWIDGQRIGSDSDFYLNKYTPRRARSRWSQVNCARATELIAEGRMTPRGLAEVERARTDGRWDAAAPPPSKATVPDDLHDALAQNAAAKMLFDELDSRNRYAILFRIHDAKKSETRAARIEKYVGMLARGETPYPRRKAR,not soluble
5,MGSDKIHHHHHHMSEIQLPSQFESFAEARKQGFIAVKNLKEQGKKVAGVFCTYAPVELVLAAGAVPVGLCAFSDETIPEAEKVLPRNLCPLVKSSYGFAITDKCPYMFFSDLMIGETTCDGKKKMYELLGEFKNLHVMQLPQTAAAEASQELWYQEVLRLKDRIEQDFGVTITEEGIKNAIKVKNEERKLLKEFYELSKSCPPPITGAEQLKVLYGSQFKFDPEAKNREIRETIDKVKADQAKGVENVSPAAKRILITGCPLAGVTEKVVRAIEESGGVVVAYENCIGVKPVERLVDETIDPYKALADRYLQIGCSVMTPNPNRLDLLSRLVREFKVDGVVEMTLQACHTYNLETTQIRKHMQKEDMPFISVETDYSTSDAAQLKTRLAAFIEMLS,not soluble
6,MGSDKIHHHHHHMSELNAQQVVDYLQHHPDFLIQHPELLAQLELQQQAQGATSLVHIQQRQLREHNTLLKNQIASMNKYAAQNEQVYRLFSLCHQQLCSNNDFDALASNLQDIICSNPDISDCRLVKYDTKYAQLVEHRLSNSGHYLGRINQQERDLLFSDTAQSTAIYLIGDINKPIAILAFASNNANHFEPAQDTLFVLDFVVALQSRLLELA,not soluble
7,MGSDKIHHHHHHMSESCILFFVKYPEPGKVKTRLGEVVGNDKAAMLYRHFVQDMLQGLARLHADLHICYVPGDADLPEKFKAWLGPQHMFAAQQGLDLGERMKHAMQKAFDDGYDRVVLMGSDIPDYPCELVQKALNDLQHYDAAIGPAFDGGYYLIGFRKDSFCPDVFDGIRWGEADVYQPTVEKMRRARLEVLQLPDWNDVDTVWDLNVLYRTNKNSSFRRSSTYALLRENDALIRQYDIDLPGMAPVEKE,not soluble
8,MGSDKIHHHHHHMSETEDSIVGIKDKELKMIRKILNRYEMKLVDIKKIRSIYKIKTENSTVCLKKVSHEFKKVENGNYLVRELKKNNFNNIADYISTKDGKLIVFYKNLAFYLTEWVDGEECNLNDINEAINASKLLAKFHLATQNINFHKIKLKNNNSKNWVEIFAKCLRDMESFKSIIQNKRIKNKFDFMYEDLIESYYNRGLFSIKILNESSYFKIIKGSNNKKTVCHNSFYYQNIIKGKKDYYIIHLNSIIIDLPITDLCKMIRTLMTKKEYMWNFEKAKQIIQAYNSVNKLSKDEMEVMLALIAFPHKFWKLGKKRYVRHKNWSENKYINKLNKIVLNNKCEQSFIEEYISYLDDIKEFTNFN,not soluble
9,MGSDKIHHHHHHMSETNAQKVQEVIIAGMSKTVANYDYAMSELEALVAANNMHAALRIDQGLEKPNPATFFGKGKVVEIKEVAAANDLHIMVINADLTPSQVRNLEEQTDIQIIDRTGLILEIFGNRARSKEAKLQVKIAQLQYQLPRLRTSISNRLDQQAGAAAGGGGGFTNRGAGETQLELNRRTIQDRISHAKHELKELNKDEVVRRSQRDKAGLPNVALVGYTNAGKSTTMNGLVKLFGKGEDKQVFEKDMLFATLDTSIRQLTFPDNKQLLLSDTVGFVSDLPHNLINAFRSTLAEAANADLLIQVIDYADPHYKEMMATTEKTLKEIGVHDVPMIYAFNKADLTEADYPNQQDDQLIYTARDEASLQALTSMIKAKVFKNYVTTTLLIPFNDGEVVAYLNDHANILKTDYLADGTQLTVELNTVDAQRYEKYVVTPA,not soluble
10,MGSDKIHHHHHHMSETVTESYIGSAIVYIDGRDCGNVSGVKLAIDQETKSLPNYRGGGGNADEVTLIKAVKLSGTFYDFNNDNLALAMRGKIDVLTAAAVVDEDITAVLDGLAPTVHMIDTSVAPVVKNTAGDSTYVLDEDYVVSAAGIRALSGGAITAGQALKLSYTSQAGNALQALTESGKTVSVVVDGINDSTGKPWTLKFYKWKPTPTSGLDLIGTDYGSFDIEGAVLADSSIVATGKSKFFVRSAA,not soluble
11,MGSDKIHHHHHHMSGMIGKIQDKKIFSITIIPSSWCNFRCVYCYENDHYKIKNMITTSEMTKRIKLFLENNIKTGFFRKVHIRWYGGEPLLDFKTIIDIMDFTNSIGKTYKTDIIGEIITNGYLLDIVKFKILLEKGVKIFQVTIDGYKDAHDKLRPLLNGKPTFDKIFENLIQTRNVTDNFFMFIRSNVMPDNLDSIKKFLDLASNYFSRDRRYYFTFFPVTRSGGDNDKNLKVIEPKKRMEIIQELYMYATQLGLNIPDKDTLLQIDGVPAMDDLCQALYPFSIIIRNDGKLFKCPLTVMIDDESVGHIEEDGSIVLDESKINRWAKYILSPLSRGCPRLHELGEVVGVEAE,not soluble
12,MGSDKIHHHHHHMSIAAEKISSEALFDLLEIFDNQPWMRDLHAELAELWNACETREEQHLLKFLLKKFFLLDAQKEKLALYGISKKIQEWGLNPASTWIVAAANKDEIDGSSAGLQKLKNKINPIEEWHSRFISNIPSASNKVKSGDTIILFDDFIGTGGKMIKKTAWLKRLVTKFDPRNLKFYYVSFSGMQFGLTSLAAETACTTYAHFIFTKAISEALPEQEALTLISAMKSIEERLAVRHKNKQLNDYSLGYEKSEALYCGQNDNCPNNVFPVFWWPSMKNGNNRKTLLKRAG,not soluble
13,MGSDKIHHHHHHMSIAIIIATHGVAAEQLLKTTEMLIGEQENVATIDFVSGENAETIMTKYQEKLSTTLAHCDEVLFLVDTWGGSPFNAANRVIGDNTNMDIVTGVNVPMLVETFMARDDNPSLQELVSIALETGRAGVRALKYEEKSAETTALSQPVPEQPQIAVKQQEGNLIVGLARIDDRLIHGQVATRWTKESRVTRIVVVNDDVAKDQVRSTMLKSVAPPGVTAHVVNIEKMIRVYNNPEYANERMMLLFTNPTDVLRLLEAGVDMKSINVGGMAYKDGKKMITSAVAVDDKDIAAFKAIDAMGIELDVRKVSNDSRQYMMDLLKKNNLI,not soluble
14,MGSDKIHHHHHHMSIDIDIIKARAKNEYRLSKVRGEAMISVRIPGGILPAHLLTVARDIAETWGNGQIHLTTRQKLAMPGIRYEDIDNVNAALEPFLREIEIELCDVQVEDTKAGYLAIGGRNIVACQGNRICQKANTDTTGLSRRLEKLVYPSPYHLKTVIVGCPNDCAKASMADLGIIGVAKMRFTADRCIGCGACVKACSHHAVGCLALKNGKAVKEESACIGCGECVLACPTLAWQRKPDQLWQVRLGGRTSKKTPRVGKLFLNWVTEDVIKQVIVNLYEFEKEMLGGKPIYLHMGHLIDKGGYLRFKERVLRGVQLNPEAMVAERIYWAEDESVARMHLKPAGH,not soluble
15,MGSDKIHHHHHHMSIFFKPPIDIEILFDNEESRKHVDIATRSSNSSYKSMKESLPVYEDGESLGGIVTLRVRDSKKVDHLGIKVSVIGSIDMLKSHGSGNSSSKKVTSSTSSSSSNGSVDVRKNSVDQFLCQSYDLCPAGELQHSQSFPFLFRDLSKRYESYKGKNVDVAYYVKVTVMRKSTDISKIKRFWVYLYNSVTTAPNTLSANETKATTNDIAGGNYAADNASDNTQTKSTQGEAADVNQVLPISHSNNEPKPVRLDIGIENCLHIEFEYAKSQYSLKEVIVGRIYFLLTRLRIKHMELSLITRESSGLQTSNVMTDSTAIRYEIMDGSSVKGETIPIRLFLSGYDLTPNMSCNYFNVKNYLSLVIIDEDGRRYFKQSEITLYRTR,not soluble
16,MGSDKIHHHHHHMSIIFDKNLGILEKTIEEIQNEKKHILRTKYGINIKDNSIYDIINFPSSSIDKQISEVLKELFSKIKENGSYFNALKEDLSTPKSSTYEAIRKALLNVEGVKHINILSGPGTINLYLILQDDCFQDQEKKQIKIETKQNIWQAIYYTAPSGTVFKGDIEIEFLNKHNQKKTYKFSLGKKKYAYLKVVYKTEAKDAIYKEIDTQIRDIYNKILTDKYIEMGTSLRYQDFLAPVSIIRGIKELKIGICIKNDETKKITQLSDSDFTFNKDENTKEDEIIIFNTNKRLLINRE,not soluble
17,MGSDKIHHHHHHMSIPSTLLGLSGGQFNEIDWSNCAIVMIDFQNEYVDGAMPLGDAGNKATANARLLLYKARNKNIPIFHVAHHGQDNDKIFNPLSSKVDIIDSLQPLDDEKTIIKMHPNAFYDTELQALITSAGKQQIIFAGFMSHMCVSSSVRAAFDLGFESFVCHDACATRDLPSVAGQVITASTVHDSAMAALQDRFAALVATDKLTNS,not soluble
18,MGSDKIHHHHHHMSIVEEQAQAGAASTSGSLLDDIMAQARISPVDEGYSVAKQGIAALVANILDSGNAAEPVNKALVDSMIVELDKKLSKQIDVILHAKELQELESSWRSLKLLIDRTDFRENIKLLVLHATKEELLEDFEFAPEISQSGFYKHVYSSGYGQFGGQPIGGVIGDYAMTQSSPDIKLMQYVSAVGAMAHAPFISSVAPTFFGVDRFTDLPSIKDLKSVFEGPAYTKWRSLRESEDGRYLGLTAPRFLARLPYDPVENPIKGFNYKEDISTDHEHYLWGNTAYLMGTALTDSFAKYRWCPNIIGPQSGGAITDLPVHVYQAMGQLQAKIPTEVLITDRREYEMAEEGFITLTMRKDSDNAAFFSANSVQKPKVFPNTKEGKEAETNYKLGTQLPYMFIINRLAHYIKVLQREQIGSWKERQDLERELNTWIKQYIADQENPPADVRSRRPLRAAQIKVLDVEGEPGWYQVTMSVRPHFKYMGANFELSLVGRLDKE,not soluble
19,MGSDKIHHHHHHMSKIKRGVSLYSFQEELFLGRMNVEDCVSFAASIGATGIEILPEQNMPTFPNLSDAQVEEWKAMVARHGCHFTAYDMFLDTKLRKDRLMSDDEQVESIVRDLRLCNRLGIRNMRVLVFVRPDILGRCVPYAEELDVHMGVEVHAPWHLEHAWILRTIEEADRLGTKHLGILPDMGIFMKHYPPAFRARFERQGARPEVTQFIVDQHEAKIMAEYTIYEVAVKMGGNKAEVAMAETLRHAPYANPKRIADYAPYFHHIQAKFYEMDEDCTDPSIAYDEVIDALVGCGWEGTLSSEYEGNRWIQDVHEVDSREQVRRQHVMFERLIVQSEARHAGKEAALCSTST,not soluble
